IntAct's records for PubMed 28559451

B1: UL16-binding protein 6 (Homo sapiens), Q5VY80 (parent)
chain: MAAAAIPALLLCLPLLFLLFGWSRARRDDPHSLCYDITVIPKFRPGPRWCAVQGQVDEKTFLHYDCGNKTVTPVSPLGKKLNVTMAWKAQNPVLREVVDILTEQLLDIQLENYTPKEPLTLQARMSCEQKAEGHSSGSWQFSIDGQTFLLFDSEKRMWTTVHPGARKMKEKWENDKDVAMSFHYISMGDCIGWLEDFLMGMDSTLEPSAGAPLAMSSGTTQLRATATTLILCCLLIILPCFILPGI

Variants of: B1
Settings: with nkg2d_human KLRK1, P26718
Chain of nkg2d_human KLRK1, P26718 (P26718 whole entry): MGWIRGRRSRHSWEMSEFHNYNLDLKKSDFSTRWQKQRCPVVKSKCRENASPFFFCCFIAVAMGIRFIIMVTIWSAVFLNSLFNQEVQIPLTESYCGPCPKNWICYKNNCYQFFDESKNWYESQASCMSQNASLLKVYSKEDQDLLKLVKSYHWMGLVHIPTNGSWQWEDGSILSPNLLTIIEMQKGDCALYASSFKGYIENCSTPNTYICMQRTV

Row | Variant | effect of a mutation on the interaction
1 | MAAAAIPALLLCLPLLFLLFGWSRARRDDPHSLCYDITVIPKFRPGPRWCAVQGQVDEKTFLHYDCGNKTVTPVSPLGKKLNVTMAWKAQNPVLREVVDILTEQLRDIQLENYTPKEPLTLQARMSCEQKAEGHSSGSWQFSIDGQTFLLFDSEKRMWTTVHPGARKMKEKWENDKDVAMSFHYISMGDCIGWLEDFLMGMDSTLEPSAGAPLAMSSGTTQLRATATTLILCCLLIILPCFILPGI [L106R] | decreasing interaction strength
